The results in this text go back to the supplement of paper PMC9112550, “Optimization of the antimicrobial peptide Bac7 by deep mutational scanning” (BMC Biology, 2022).

This data set relates to Escherichia coli TOP10. Briefly: shrunken log2 fold change of peptide-encoding DNA abundance (4.5 h post-induction vs induction); higher = less antimicrobial activity (less host growth inhibition). To be noted: time post-induction: 4.5 h; library: site-saturation at positions 5, 18, 19, 20.
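Also: peptides expressed intracellularly from a pBAD plasmid library in pooled LB shake-flask culture, induced with 0.3% L-arabinose, DNA abundance read by NGS, three biological replicates, DESeq2 with apeglm shrinkage.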

As for RRIRERPPRLPRPRPRPRNGPRP, the “shrunken log2 fold change” value amounted to 0.0197. The value for RRIRGRPPRLPRPRPRPGGQPRP was 0.672; that for RRIRARPPRLPRPRPRPQRVPRP was -0.188.

Regarding RRIRLRPPRLPRPRPRPQHSPRP, the “shrunken log2 fold change” value is -0.337. The value for RRIRTRPPRLPRPRPRPVLRPRP was 0.11. Then RRIRERPPRLPRPRPRPEVLPRP, with 0.28; and RRIRNRPPRLPRPRPRPLAEPRP, with 0.108; and RRIRVRPPRLPRPRPRPRMFPRP, with -0.0394. Then RRIRRRPPRLPRPRPRPCHDPRP, with -0.105; and RRIRNRPPRLPRPRPRPTNSPRP, with -0.279; and RRIRPRPPRLPRPRPRPESCPRP, with 0.239. Turning to RRIRKRPPRLPRPRPRPMYVPRP, the “shrunken log2 fold change” value is -0.0793.

Consider RRIRHRPPRLPRPRPRPMGNPRP, for which the “shrunken log2 fold change” value is -0.0499.

Turning to RRIRNRPPRLPRPRPRPNKFPRP, the “shrunken log2 fold change” value was -0.597. The value for RRIRYRPPRLPRPRPRPIPKPRP was 0.141. As for RRIRPRPPRLPRPRPRPNQHPRP, the “shrunken log2 fold change” value was -0.43. Then RRIRCRPPRLPRPRPRPSKTPRP, with -0.0722; and RRIRLRPPRLPRPRPRPKLVPRP, with -0.0181.

RRIRDRPPRLPRPRPRPWTHPRP: the “shrunken log2 fold change” value is -0.291.

As for RRIRERPPRLPRPRPRPQMEPRP, the “shrunken log2 fold change” value is 0.00522.

For the sequence RRIRDRPPRLPRPRPRPWKWPRP, the “shrunken log2 fold change” value worked out at 0.0155.

Regarding RRIRCRPPRLPRPRPRPPFPPRP, the “shrunken log2 fold change” value was 0.302. The value for RRIRFRPPRLPRPRPRPQCTPRP was -0.137. Take RRIRARPPRLPRPRPRPSECPRP: the “shrunken log2 fold change” value turned out to be 0.145. Then RRIRPRPPRLPRPRPRPYWMPRP, with -1.06. Then RRIRCRPPRLPRPRPRPRAVPRP, with 0.405; and RRIRGRPPRLPRPRPRPEAWPRP, with 1.91. As to RRIRPRPPRLPRPRPRPYNDPRP, the “shrunken log2 fold change” value is -0.723. Then RRIRFRPPRLPRPRPRPIHTPRP, with 0.0523; and RRIRQRPPRLPRPRPRPQPTPRP, with 0.163. Then RRIRGRPPRLPRPRPRPNHPPRP, with 0.0349. Then RRIRKRPPRLPRPRPRPENMPRP, with 0.11; and RRIRMRPPRLPRPRPRPIQWPRP, with 0.144; and RRIRDRPPRLPRPRPRPCNGPRP, with -0.143. In the case of RRIRNRPPRLPRPRPRPWVWPRP, the “shrunken log2 fold change” value is -0.115. The value for RRIRLRPPRLPRPRPRPQTNPRP was -0.497. Turning to RRIRRRPPRLPRPRPRPTTWPRP, the “shrunken log2 fold change” value worked out at 0.28. Then RRIRYRPPRLPRPRPRPGMTPRP, with 0.0238; and RRIRARPPRLPRPRPRPVMWPRP, with 0.555. Then RRIRARPPRLPRPRPRPKEIPRP, with 0.711. The value for RRIRDRPPRLPRPRPRPKMNPRP was -0.366; that for RRIRYRPPRLPRPRPRPRDYPRP was -1.39. Regarding RRIRVRPPRLPRPRPRPAGCPRP, the “shrunken log2 fold change” value came out at 0.459. The value for RRIRNRPPRLPRPRPRPILNPRP was -0.353; that for RRIRNRPPRLPRPRPRPTIIPRP was -0.905; that for RRIRPRPPRLPRPRPRPNTLPRP was -0.468.

Regarding RRIRNRPPRLPRPRPRPPWQPRP, the “shrunken log2 fold change” value came out at 0.161.

Regarding RRIRGRPPRLPRPRPRPDKSPRP, the “shrunken log2 fold change” value came to 0.18. For RRIRDRPPRLPRPRPRPHQGPRP, the “shrunken log2 fold change” value was -0.00184. Then RRIRDRPPRLPRPRPRPLYVPRP, with -0.17; and RRIRTRPPRLPRPRPRPDNMPRP, with -0.909; and RRIRIRPPRLPRPRPRPNYGPRP, with 0.0426. For RRIRTRPPRLPRPRPRPNLQPRP, the “shrunken log2 fold change” value is -0.0672. Regarding RRIRLRPPRLPRPRPRPHCAPRP, the “shrunken log2 fold change” value is -0.309. The value for RRIRTRPPRLPRPRPRPPKIPRP was -0.112.

As for RRIRMRPPRLPRPRPRPEDLPRP, the “shrunken log2 fold change” value amounted to 4.64. Then RRIRVRPPRLPRPRPRPHEIPRP, with 0.026.

With RRIRQRPPRLPRPRPRPSQKPRP, the “shrunken log2 fold change” value was found to be 0.0595.

On to RRIRERPPRLPRPRPRPKDLPRP, for which the “shrunken log2 fold change” value came out at 0.167.

For the sequence RRIRLRPPRLPRPRPRPVDNPRP, the “shrunken log2 fold change” value was -0.491.

Turning to RRIRKRPPRLPRPRPRPHGKPRP, the “shrunken log2 fold change” value came out at 0.109. The value for RRIRMRPPRLPRPRPRPTEIPRP was -0.0223; that for RRIRNRPPRLPRPRPRPFKAPRP was 0.0407.
